# According to PMC8218332 (Cell, 2021):
# B1: mAb 222 (antibody, V domains shown)
# VH: EVQLVESGGGLIQPGGSLRLSCAASGLTVSSNYMSWVRQAPGKGLEWVSVIYSGGSTFYADSVKGRFTISRDNSKNTLYLQMNSLGAEDTAVYYCARGEGSPGNWFDPWGQGTLVTVSS
# VL: DVVMTQSPGTLSLSPGERATLSCRASQSVPSSYLAWYQQKPGQAPRLLIYGASTRATGIPDRFSGSGSGTDFTLTISRLEPEDFAVYYCQHYDTSPRFGGGTKVDIK
# notes: copies: 2 + 2
# B2: REGN10987 (antibody, V domains shown)
# VH: QVQLVESGGGVVQPGRSLRLSCAASGFTFSNYAMYWVRQAPGKGLEWVAVISYDGSNKYYADSVKGRFTISRDNSKNTLYLQMNSLRTEDTAVYYCASGSDYGDYLLVYWGQGTLVTVSS
# VL: QSALTQPASVSGSPGQSITISCTGTSSDVGGYNYVSWYQQHPGKAPKLMIYDVSKRPSGVSNRFSGSKSGNTASLTISGLQSEDEADYYCNSLTSISTWVFGGGTKLTVL
# notes: source: provided by AstraZeneca; copies: 2 + 2
# B3: mAb 384 (antibody, V domains shown)
# VH: EVQLVESGGGLVKPGESLRLSCAASGFTFSDYYMTWIRQAPGKGLEWVSYIRSSGHTIYYADSVKGRFTISRDNAKNSLYLQMNSLRVEDTAVYYCARGGVLRFLEWPLNAFDIWGQGTMVTVSS
# VL: DIQLTQSPSSLSASVGDRVTITCRASQGISNYLAWYQQKPGKVPKLLIYAASTLQSGVPSRFSGSGSGTDFTLTISSLQPEDVATYYCQKYNNALGTFGQGTKVEIK
# notes: copies: 2 + 2
# B4: mAb 316 (antibody, V domains shown)
# VH: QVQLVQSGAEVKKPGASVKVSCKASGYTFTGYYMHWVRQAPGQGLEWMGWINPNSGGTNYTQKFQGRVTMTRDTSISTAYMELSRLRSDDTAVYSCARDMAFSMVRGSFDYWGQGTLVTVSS
# VL: QAVLTQPPSASGSPGQSVTISCTGTSSDVGGYNYVSWYQQHPGKAPKLMIYEVSKRPSGVPDRFSGSKSGNTASLTVSGLQAEDEADYYCSSYAGSNHWVFGGGTKLTVL
# notes: copies: 2 + 2
# B5: mAb 88 (antibody, V domains shown)
# VH: QLQLQESGPGLVKPSQTLSLTCTVSGGSISSGSYNWTWIRQPAGKGLEWIGRIYNSGSTNYNPSLKSRVTISVDTSKNQLSLKVRSVTAADTAVYYCARHCSGGTCYPKYYYGMDVWGQGTTVTVSS
# VL: QSALTQPPSVSEAPRQRVTISCSGSSSNIGNNAVNWYQQFPGKAPKLLIYYDDLLPSGVSDRFSGSKSGTSASLAISGVQSEDEADYYCAAWDDSLNVVVFGGGTKLTVL
# notes: copies: 2 + 2
# B6: mAb 278 (antibody, V domains shown)
# VH: QVQLVQSGAEVKKPGASVKVSCKASGYIFIRYGISWVRQAPGQGLEWMGWISANNGYTNYAQKLQGRVTMTTDTSTSTAYMELRSLRSDDTAVYYCARDGGILTGYLDYFDHWGQGTLVTVSS
# VL: DIQMTQSPSSLSASVGDRLTITCRASQSIASYLNWYQQKPGKAPKLLIYAASSLQSGVPSRFSGSGSGTDFTLTISSLQPEDFATYHCQQSYSTLGITFGPGTKVDIK
# notes: copies: 2 + 2
# Target: His-tagged SARS-CoV-2 RBD (Victoria RBD) (SARS-CoV-2, Victoria/Wuhan-Hu-1 (same …, UniProt P0DTC2))
# Experiment: BLI
# Conditions: both partners purified
row,Binder,Kd
1,B1,0.25 nM
2,B2,0.38 nM
3,B3,0.65 nM
4,B4,0.38 nM
5,B5,4.4 nM
6,B6,1.6 nM
